From patent US20200054723A1 (ALLAKOS, published 2020)

Target: T1, recombinant human Siglec-8 extracellular domain (ECD) (human, UniProt Q9NYZ4 17-363)
T1 construct: extracellular domain; also called Siglec-8 ECD; full Siglec-8 ECD
Experiment: ELISA, coated Siglec-8 ECD
Procedure: Binding of recombinant human Siglec-8 extracellular domain (ECD) by chimeric 2E2 and chimeric 2C4 IgG1K antibodies was measured by ELISA. […] Three-fold serial dilutions of a chimeric antibody (ch2E2 or ch2C4) or mouse antibody (m2E2 or m2C4) in 0.2% BSA/TBS (starting concentration was 5000 ng/mL) was added to each coated well. The plate was incubated for 2 hours at room temperature and the wells were subsequently washed before addition of goat-anti-human Fc peroxidase conjugate (1:10000 dilution) or anti-mouse Fc peroxidase conjugate (1:30000 dilution) diluted in 0.2% BSA/TBS solution. The plate was incubated for 45 minutes at room temperature, followed by washing and addition of 30 μL K-blue HRP substrate (SkyBio Ltd) to each well. After incubation at room temperature for 15 minutes, the reaction was stopped by adding 10 μL of Red Stop solution (SkyBio Ltd) to each well. The optical density or the experimental samples was read at 650 nm using the ELISA reader PHERAStar FS (BMG Labtech).
The fully humanized antibody heavy and light chains were combined and compared with the chimeric antibody to determine if replacing the 4 Å and canonical framework residues and interface residues was sufficient to successfully humanize 2E2. Expi293 cells were co-transfected with combinations of different humanized light chain vectors in association with different humanized heavy chain vectors. Siglec-8 antigen was used to measure antibody binding by ELISA as described in Example 1.

T1 sequence (Q9NYZ4 17-363): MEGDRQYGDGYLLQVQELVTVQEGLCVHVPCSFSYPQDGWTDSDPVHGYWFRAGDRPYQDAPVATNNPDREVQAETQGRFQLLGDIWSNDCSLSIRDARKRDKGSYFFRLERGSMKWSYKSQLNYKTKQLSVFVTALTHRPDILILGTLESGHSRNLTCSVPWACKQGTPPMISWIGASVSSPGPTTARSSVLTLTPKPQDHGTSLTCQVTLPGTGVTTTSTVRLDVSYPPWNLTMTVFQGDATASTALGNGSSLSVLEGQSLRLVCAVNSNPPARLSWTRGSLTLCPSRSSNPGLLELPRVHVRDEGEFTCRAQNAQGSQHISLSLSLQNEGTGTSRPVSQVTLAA

Binder	EC50 [nM]
HGKF (antibody, human IgG1, V domains shown, human IgG1/kappa) VH: EVQLVESGGGLVQPGGSLRLSCAASGFSLTIYGAHWVRQAPGKGLEWVSVIWAGGSTNYNSALMSRFSISKDNSKNTVYLQMNSLRAEDTAVYYCARDGSSPYYYSMEYWGQGTTVTVSS VL: EIVLTQSPATLSLSPGERATLSCSATSSVSYMHWFQQKPGQAPRLLIYSTSNLASGIPARFSGSGSGTDYTLTISSLEPEDFAVYYCQQRSSYPFTFGPGTKLDIK	0.088
RHE S-G KFmut (antibody, V domains shown, human IgG1/kappa) VH: EVQLVESGGGLVQPGGSLRLSCAASGFSLTIYGAHWVRQAPGKGLEWVGVIWAGGSTNYNSALMSRFTISKDNSKNTVYLQMNSLRAEDTAVYYCARDGSSPYYYGMEYWGQGTTVTVSS VL: EIVLTQSPATLSLSPGERATLSCSATSSVSYMHWFQQKPGQAPRLLIYSTSNLASGIPARFSGSGSGTDYTLTISSLEPEDFAVYYCQQRSSYPYTFGPGTKLDIK	207
RHE S-GKF (antibody, human IgG1, V domains shown, human IgG1/kappa) VH: EVQLVESGGGLVQPGGSLRLSCAASGFSLTIYGAHWVRQAPGKGLEWVGVIWAGGSTNYNSALMSRFTISKDNSKNTVYLQMNSLRAEDTAVYYCARDGSSPYYYGMEYWGQGTTVTVSS VL: EIVLTQSPATLSLSPGERATLSCSATSSVSYMHWFQQKPGQAPRLLIYSTSNLASGIPARFSGSGSGTDYTLTISSLEPEDFAVYYCQQRSSYPFTFGPGTKLDIK	3.28
RHE E-DKC (antibody, human IgG1, V domains shown, human IgG1/kappa) VH: EVQLVESGGGLVQPGGSLRLSCAASGFSLTIYGAHWVRQAPGKGLEWVGVIWAGGSTNYNSALMSRFTISKDNSKNTVYLQMNSLRAEDTAVYYCARDGSSPYYYSMDYWGQGTTVTVSS VL: EIILTQSPATLSLSPGERATLSCSATSSVSYMHWFQQKPGQAPRLLIYSTSNLASGIPARFSGSGSGTDFTLTISSLEPEDFAVYYCQQRSSYPFTFGPGTKLDIK	0.516
RHE Triple-KD (antibody, human IgG1, V domains shown, human IgG1/kappa) VH: EVQLVESGGGLVQPGGSLRLSCAASGFSLTIYGAHWVRQAPGKGLEWVGVIWAGGSTNYNSALMSRFTISKDNSKNTVYLQMNSLRAEDTAVYYCARDGSSPYYYGMDVWGQGTTVTVSS VL: EIVLTQSPATLSLSPGERATLSCSATSSVSYMHWFQQKPGQAPRLWIYSTSNLASGIPARFSGSGSGTDFTLTISSLEPEDFAVYYCQQRSSYPFTFGPGTKLDIK	13.2
RHE S-GKA (antibody, human IgG1, V domains shown, human IgG1/kappa) VH: EVQLVESGGGLVQPGGSLRLSCAASGFSLTIYGAHWVRQAPGKGLEWVGVIWAGGSTNYNSALMSRFTISKDNSKNTVYLQMNSLRAEDTAVYYCARDGSSPYYYGMEYWGQGTTVTVSS VL: EIVLTQSPATLSLSPGERATLSCSATSSVSYMHWFQQKPGQAPRLLIYSTSNLASGIPARFSGSGSGTDFTLTISSLEPEDFAVYYCQQRSSYPFTFGPGTKLDIK	50.6
RHE E-DKE (antibody, human IgG1, V domains shown, human IgG1/kappa) VH: EVQLVESGGGLVQPGGSLRLSCAASGFSLTIYGAHWVRQAPGKGLEWVGVIWAGGSTNYNSALMSRFTISKDNSKNTVYLQMNSLRAEDTAVYYCARDGSSPYYYSMDYWGQGTTVTVSS VL: EIVLTQSPATLSLSPGERATLSCSATSSVSYMHWFQQKPGQAPRLLIYSTSNLASGVPARFSGSGSGTDFTLTISSLEPEDFAVYYCQQRSSYPFTFGPGTKLDIK	0.364
RHE E-DKF (antibody, human IgG1, V domains shown, human IgG1/kappa) VH: EVQLVESGGGLVQPGGSLRLSCAASGFSLTIYGAHWVRQAPGKGLEWVGVIWAGGSTNYNSALMSRFTISKDNSKNTVYLQMNSLRAEDTAVYYCARDGSSPYYYSMDYWGQGTTVTVSS VL: EIVLTQSPATLSLSPGERATLSCSATSSVSYMHWFQQKPGQAPRLLIYSTSNLASGIPARFSGSGSGTDYTLTISSLEPEDFAVYYCQQRSSYPFTFGPGTKLDIK	0.445
RHE S-GKB (antibody, human IgG1, V domains shown, human IgG1/kappa) VH: EVQLVESGGGLVQPGGSLRLSCAASGFSLTIYGAHWVRQAPGKGLEWVGVIWAGGSTNYNSALMSRFTISKDNSKNTVYLQMNSLRAEDTAVYYCARDGSSPYYYGMEYWGQGTTVTVSS VL: EIILTQSPATLSLSPGERATLSCSATSSVSYMHWFQQKPGQAPRLWIYSTSNLASGVPARFSGSGSGTDYTLTISSLEPEDFAVYYCQQRSSYPFTFGPGTKLDIK	627
RHE Triple-KA (antibody, human IgG1, V domains shown, human IgG1/kappa) VH: EVQLVESGGGLVQPGGSLRLSCAASGFSLTIYGAHWVRQAPGKGLEWVGVIWAGGSTNYNSALMSRFTISKDNSKNTVYLQMNSLRAEDTAVYYCARDGSSPYYYGMDVWGQGTTVTVSS VL: EIVLTQSPATLSLSPGERATLSCSATSSVSYMHWFQQKPGQAPRLLIYSTSNLASGIPARFSGSGSGTDFTLTISSLEPEDFAVYYCQQRSSYPFTFGPGTKLDIK	18.6
RHE E-DKD (antibody, human IgG1, V domains shown, human IgG1/kappa) VH: EVQLVESGGGLVQPGGSLRLSCAASGFSLTIYGAHWVRQAPGKGLEWVGVIWAGGSTNYNSALMSRFTISKDNSKNTVYLQMNSLRAEDTAVYYCARDGSSPYYYSMDYWGQGTTVTVSS VL: EIVLTQSPATLSLSPGERATLSCSATSSVSYMHWFQQKPGQAPRLWIYSTSNLASGIPARFSGSGSGTDFTLTISSLEPEDFAVYYCQQRSSYPFTFGPGTKLDIK	0.316
RHE S-GKG (antibody, human IgG1, V domains shown, human IgG1/kappa) VH: EVQLVESGGGLVQPGGSLRLSCAASGFSLTIYGAHWVRQAPGKGLEWVGVIWAGGSTNYNSALMSRFTISKDNSKNTVYLQMNSLRAEDTAVYYCARDGSSPYYYGMEYWGQGTTVTVSS VL: EIVLTQSPATLSLSPGERATLSCSATSSVSYMHWYQQKPGQAPRLLIYSTSNLASGIPARFSGSGSGTDFTLTISSLEPEDFAVYYCQQRSSYPFTFGPGTKLDIK	33.5
HGKG (antibody, human IgG1, V domains shown, human IgG1/kappa; also called HGHG) VH: EVQLVESGGGLVQPGGSLRLSCAASGFSLTIYGAHWVRQAPGKGLEWVSVIWAGGSTNYNSALMSRFSISKDNSKNTVYLQMNSLRAEDTAVYYCARDGSSPYYYSMEYWGQGTTVTVSS VL: EIVLTQSPATLSLSPGERATLSCSATSSVSYMHWYQQKPGQAPRLLIYSTSNLASGIPARFSGSGSGTDFTLTISSLEPEDFAVYYCQQRSSYPFTFGPGTKLDIK	0.254
RHE S-GKD (antibody, human IgG1, V domains shown, human IgG1/kappa) VH: EVQLVESGGGLVQPGGSLRLSCAASGFSLTIYGAHWVRQAPGKGLEWVGVIWAGGSTNYNSALMSRFTISKDNSKNTVYLQMNSLRAEDTAVYYCARDGSSPYYYGMEYWGQGTTVTVSS VL: EIVLTQSPATLSLSPGERATLSCSATSSVSYMHWFQQKPGQAPRLWIYSTSNLASGIPARFSGSGSGTDFTLTISSLEPEDFAVYYCQQRSSYPFTFGPGTKLDIK	8.65
RHE E-DKB (antibody, human IgG1, V domains shown, human IgG1/kappa) VH: EVQLVESGGGLVQPGGSLRLSCAASGFSLTIYGAHWVRQAPGKGLEWVGVIWAGGSTNYNSALMSRFTISKDNSKNTVYLQMNSLRAEDTAVYYCARDGSSPYYYSMDYWGQGTTVTVSS VL: EIILTQSPATLSLSPGERATLSCSATSSVSYMHWFQQKPGQAPRLWIYSTSNLASGVPARFSGSGSGTDYTLTISSLEPEDFAVYYCQQRSSYPFTFGPGTKLDIK	0.289
RHE E-DKA (antibody, human IgG1, V domains shown, human IgG1/kappa) VH: EVQLVESGGGLVQPGGSLRLSCAASGFSLTIYGAHWVRQAPGKGLEWVGVIWAGGSTNYNSALMSRFTISKDNSKNTVYLQMNSLRAEDTAVYYCARDGSSPYYYSMDYWGQGTTVTVSS VL: EIVLTQSPATLSLSPGERATLSCSATSSVSYMHWFQQKPGQAPRLLIYSTSNLASGIPARFSGSGSGTDFTLTISSLEPEDFAVYYCQQRSSYPFTFGPGTKLDIK	0.388
RHE S-GKC (antibody, human IgG1, V domains shown, human IgG1/kappa) VH: EVQLVESGGGLVQPGGSLRLSCAASGFSLTIYGAHWVRQAPGKGLEWVGVIWAGGSTNYNSALMSRFTISKDNSKNTVYLQMNSLRAEDTAVYYCARDGSSPYYYGMEYWGQGTTVTVSS VL: EIILTQSPATLSLSPGERATLSCSATSSVSYMHWFQQKPGQAPRLLIYSTSNLASGIPARFSGSGSGTDFTLTISSLEPEDFAVYYCQQRSSYPFTFGPGTKLDIK	173
RHE Triple-KE (antibody, human IgG1, V domains shown, human IgG1/kappa) VH: EVQLVESGGGLVQPGGSLRLSCAASGFSLTIYGAHWVRQAPGKGLEWVGVIWAGGSTNYNSALMSRFTISKDNSKNTVYLQMNSLRAEDTAVYYCARDGSSPYYYGMDVWGQGTTVTVSS VL: EIVLTQSPATLSLSPGERATLSCSATSSVSYMHWFQQKPGQAPRLLIYSTSNLASGVPARFSGSGSGTDFTLTISSLEPEDFAVYYCQQRSSYPFTFGPGTKLDIK	34.1
HGKFmut (antibody, human IgG1, V domains shown, human IgG1/kappa) VH: EVQLVESGGGLVQPGGSLRLSCAASGFSLTIYGAHWVRQAPGKGLEWVSVIWAGGSTNYNSALMSRFSISKDNSKNTVYLQMNSLRAEDTAVYYCARDGSSPYYYSMEYWGQGTTVTVSS VL: EIVLTQSPATLSLSPGERATLSCSATSSVSYMHWFQQKPGQAPRLLIYSTSNLASGIPARFSGSGSGTDYTLTISSLEPEDFAVYYCQQRSSYPYTFGPGTKLDIK	0.062
RHE E-DKFmut (antibody, human IgG1, V domains shown, human IgG1/kappa) VH: EVQLVESGGGLVQPGGSLRLSCAASGFSLTIYGAHWVRQAPGKGLEWVGVIWAGGSTNYNSALMSRFTISKDNSKNTVYLQMNSLRAEDTAVYYCARDGSSPYYYSMDYWGQGTTVTVSS VL: EIVLTQSPATLSLSPGERATLSCSATSSVSYMHWFQQKPGQAPRLLIYSTSNLASGIPARFSGSGSGTDYTLTISSLEPEDFAVYYCQQRSSYPYTFGPGTKLDIK	1.4
